From US10202593B2, “Evolved sortases and uses thereof” (President and Fellows of Harvard College, priority 2013, dated 2019)
Values joined by “and” are separate entries in the source; they are usually repeats but may differ in a detail not shown here. Equal entries are not always repeated. Where two headings read alike, the source gives them in different places.

Columns and labels:
Assay type in all cases: biochemical
[1] = tested on: LPETG (Abz-LPETGK(Dnp)-CONH2); assay: In vitro sortase kinetics HPLC assay, LPETG substrate
Method in brief: (§1)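 Abz-LXEXGK(Dnp) peptides in 300 mM Tris pH 7.5, 150 mM NaCl, 5 mM CaCl2, 5% DMSO, GGG; 22.5° C., acid-quenched, converted fraction by reverse-phase HPLC peak areas. kcat and Km from eight substrate concentrations fit to Michaelis-Menten; KH at 1 mM substrate over eight GGG levels.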

[2] = tested on: LAETG (Abz-LAETGK(Dnp)-CONH2); assay: In vitro sortase kinetics HPLC assay, LAETG substrate
Protocol: (§2) See below for details on sortase expression and purification, and on the synthesis of Abz-LPETGK(Dnp)-CONH2 (SEQ ID NO: 19). […] Reactions were initiated with the addition of enzyme and incubated at 22.5° C. for 3 to 20 minutes before quenching with 0.5 volumes of 1 M HCl. Five to ten nmol of peptide from the quenched reactions were injected onto an analytical reverse-phase Eclipse XDB-C18 HPLC column (4.6×150 mm, 5 μm, Agilent Technologies) and chromatographed using a gradient of 10 to 65% acetonitrile with 0.1% TFA in 0.1% aqueous TFA over 13 minutes. Retention times under these conditions for the Abz-LPETGK(Dnp)-CONH2 (SEQ ID NO: 19) substrate, the released GKDnp peptide, and the Abz-LPETGGG-COOH (SEQ ID NO: 20) product were 12.8, 10.4, and 9.1 min, respectively. To calculate the percent conversion, the ratio of the integrated areas of the Abz-LPETGGG-COOH (SEQ ID NO: 20) and Abz-LPETGK(Dnp)-CONH2 (SEQ ID NO: 19) peptide Abs220 peaks was compared to a standard curve generated by mixing the product and starting peptide in known ratios. To determine […] and Km, reaction rates were fit to the Michaelis-Menten equation using OriginPro 7.0 software. All kinetics values reported represent the average of at least three measurements. Percent conversion was also calculated by using the ratio of the integrated areas of the GK(Dnp)-CONH2 and Abz-LPETGK(Dnp)-CONH2 peptide Abs355 peaks were compared directly (Example 5). To determine kcat and Km, LPETG, reaction rates were fit to the Michaelis-Menten equation using Microsoft Excel using the Solver add-in. To determine Km,GGG and KH, reaction rates were fit to the modified Michaelis-Menten, for which KH is as defined when KH<<Km,GGG.
(§3) Assays to determine eSrtA, eSrtA(2A-9) and eSrtA(4S-9) specificity were performed by preparing 10 μM stocks of Abz-LXEXGK(Dnp) (SEQ ID NO: 75) peptides in 300 mM Tris pH 7.5, 150 mM NaCl, 5 mM CaCl2, 5% v/v DMSO, and 100 mM Gly-Gly-Gly-COOH (GGG). Reactions were performed by adding eSrtA(2A-9) to a final concentration of 450 nM, eSrtA(4S-9) to a final concentration of 115 nM or eSrtA to a final concentration of 47.5 nM and a final volume of 100 μL, then incubating at 22.5° C. for 15 minutes. Reactions were quenched by the addition of 0.2 volumes of 5 M HCl, then were injected onto an analytical reverse-phase Eclipse XDB-C18 HPLC column (4.6×150 mm, 5 μm, Agilent Technologies) and chromatographed using a gradient of 10 to 65% acetonitrile with 0.1% TFA in 0.1% aqueous TFA over 13 minutes. Retention times under these conditions for the Abz-LPETGK(Dnp)-CONH2 (SEQ ID NO: 19) substrate, the released GKDnp peptide, and the Abz-LPETGGG-COOH (SEQ ID NO: 20) product were 12.8, 10.4, and 9.1 min, respectively, while the remaining Abz-LXEXGK(Dnp)-CONH2 (SEQ ID NO: 74) substrates varied in retention time between 9 and 13 minutes. To calculate the percent conversion, the ratio of the integrated areas of the GK(Dnp)-CONH2 and Abz-LPETGK(Dnp)-CONH2 (SEQ ID NO: 19) peptide Abs355 peaks were compared directly. Subsequent determination of kcat/Km and KH were performed as described for in vitro SrtA characterization.
In each case, rate constants were determined by measuring enzyme velocity at eight different substrate concentrations by HPLC assay, then fit using nonlinear regression to the Michaelis-Menten equation, yielding kcat and Km. KH was calculated by measuring enzyme velocity at 1 mM target substrate and eight different GGG concentrations by HPLC assay, then fitting the resulting curves using nonlinear regression to the modified Michaelis-Menten equation.

[3] = tested on: LPESG (Abz-LPESGK(Dnp)-CONH2); assay: In vitro sortase kinetics HPLC assay, LPESG substrate; details: for Km: read-out: Km
Method in brief: as §1

[4] = tested on: LSETG; assay: In vitro sortase kinetics HPLC assay, LSETG substrate
Protocol: as §2, §3
The original pentamutant comprising the mutations P94R, D160N, D165A, K190E, and K196T is referred to as eSrtA. Sortase variants herein were evolved using eSrtA as the parent enzyme in the evolution experiments. In some cases, an evolved sortase comprises a N160K mutation instead of a D160N or a T196S mutation instead of a K196T. Parameters are reported with their standard deviations as determined from three technical replicates. kcat, Km and kcat/Km parameters were determined at 100 mM GGG concentration, while Km,GGG and KH parameters were determined at 1 mM concentration of the listed substrate.

[5] = GGG varied, substrate 2A (LAETG)

B1: eSrtA(2A-9): P94R, S102C, A104H, E105D, K138P, K152I, N160K, K162H, T164N, D165A, K173E, I182V, K190E, T196S (protein)
chain: QAKPQIPKDKSKVAGYIEIPDADIKEPVYPGPATREQLNRGVCFHDENESLDDQNISIAGHTFIDRPNYQFTNLKAAKPGSMVYFKVGNETRIYKMTSIRKVHPNAVEVLDEQEGKDKQLTLVTCDDYNEETGVWESRKIFVATEVK
KH ([1]; 1 mM LPETG): 27.1 ± 0.1 µM | KN ([1]; 1 mM LPETG, eight GGG concentrations): 27.1 ± 0.1 µM | Km ([1]; 1 mM LPETG, read-out: Km,GGG): 585 ± 3 µM | Avg kcat (Hz) ([1]; Example 5 variants, substrate wt (LPETG)): 0.02091 Hz | Km ([1]; Example 5 variants, substrate wt (LPETG), read-out: Avg KM): 1270 µM | KH,LPETG ([1]; LPETG substrate): 18.7 ± 3.3 µM | Kcat (Hz) ([1]; Sub LPETG, 100 mM GGG): 0.0209 ± 0.004 Hz | Km ([1]; Sub LPETG, 100 mM GGG, read-out: Km): 1270 ± 62 µM | Rel. Activity ([1]; Sub LPETG, kcat/Km of the enzyme's preferred substrate relative to kcat/Km on this substrate): 510 | Kcat (Hz) ([1]; Table 2, Sub LPETG): 0.0209 ± 0.0004 Hz | Km ([1]; Table 2, Sub LPETG, read-out: Km): 1270 ± 62 µM | activity on LPETG ([1]; round 9 clones): minimally active on LPETG | preference for LAETG over LPESG [2]: > 1000 :1 | KH ([2]; 1 mM LAETG): 33 ± 4 µM | KN ([2]; 1 mM LAETG, eight GGG concentrations): 33 ± 4 µM | Km ([2]; 1 mM LAETG, read-out: Km,GGG): 1480 ± 190 µM | Avg kcat (Hz) ([2]; Example 5 variants, substrate 2A (LAETG)): 2.23 Hz | Km ([2]; Example 5 variants, substrate 2A (LAETG), read-out: Avg KM): 265 µM | Avg kHydro (Hz) [2, 5]: 0.03506 Hz | Avg kcat (Hz) [2, 5]: 1.587 Hz | Km ([2]; KM for GGG, substrate 2A (LAETG), read-out: Avg KM): 1480 µM | Kcat (Hz) ([2]; Sub LAETG, 100 mM GGG): 2.23 ± 0.02 Hz | Km ([2]; Sub LAETG, 100 mM GGG, read-out: Km): 265 ± 9 µM | Rel. Activity ([2]; Sub LAETG, kcat/Km of the enzyme's preferred substrate relative to kcat/Km on this substrate): 1 | Kcat (Hz) ([2]; Table 2, Sub LAETG): 2.23 ± 0.02 Hz | Km ([2]; Table 2, Sub LAETG, read-out: Km): 265 ± 9 µM | change in specificity for LAETG versus LPETG relative to eSrtA ([2]; ratio of (kcat/KM)target to (kcat/KM)LPETG, relative to eSrtA): 51,000 fold | preference for LAETG over LPETG ([2]; ratio of kcat/KM): ~500 fold and 510 fold | Specificity (relative catalytic efficiency, fold) ([2]; ratio of kcat/KM between 2A (LAETG) and wt (LPETG)): 509.8 fold | Avg KH ([2]; substrate 2A (LAETG)): 32.79 µM | activity on LPESG [3]: negligible activity | Kcat (Hz) ([3]; Sub LPESG, 100 mM GGG): 0.0066 ± 0.0006 Hz | Km ([3]; Sub LPESG, 100 mM GGG): 4800 ± 1200 µM | Rel. Activity ([3]; Sub LPESG, kcat/Km of the enzyme's preferred substrate relative to kcat/Km on this substrate): 5943 | Kcat (Hz) ([3]; Table 2, Sub LPESG): 0.0066 ± 0.0006 Hz | Km ([3]; Table 2, Sub LPESG): 4800 ± 1200 µM | KH ([4]; 1 mM LSETG): 26.0 ± 3.4 µM | Km ([4]; 1 mM LSETG, read-out: Km,GGG): 1270 ± 200 µM | Kcat (Hz) ([4]; Sub LSETG, 100 mM GGG): 0.115 ± 0.007 Hz | Km ([4]; Sub LSETG, 100 mM GGG, read-out: Km): 331 ± 67 µM
